Measured values: article PMC12668182, “Molecular basis for CSB stimulation of the SNM1A DNA repair nuclease” (Research Square, 2025)
Positions count from the first letter of the chain named. Numbers in names are those of the source. Where “and” joins values, the source holds several entries; their conditions need not be identical. Equal entries are not always repeated.

B1: CSB C-terminal domain (a.a. 1187-1493) (domain or fragment, human, UniProt Q03468 1187-1493, looked up)
chain: HHSVAEEETLEKHLRPKQKPKNSKHCRDAKFEGTRIPHLVKKRRYQKQDSENKSEAKEQSNDDYVLEKLFKKSVGVHSVMKHDAIMDGASPDYVLVEAEANRVAQDALKALRLSRQRCLGAVSGVPTWTGHRGISGAPAGKKSRFGKKRNSNFSVQHPSSTSPTEKCQDGIMKKEGKDNVPEHFSGRAEDADSSSGPLASSSLLAKMRARNHLILPERLESESGHLQEASALLPTTEHDDLLVEMRNFIAFQAHTDGQASTREILQEFESKLSASQSCVFRELLRNLCTFHRTSGGEGIWKLKPEYC
notes: pNIC28-Bsa4 vector: N-terminal His6 followed by a TEV site; no cleavage is described; also called C-terminal CSB construct; source: E. coli BL21(DE3) pLysS, purified (Ni-NTA, Superdex S75)
B2: CSB (a.a. 1308-1493) (domain or fragment, human, UniProt Q03468 1308-1493, looked up)
chain: VSGVPTWTGHRGISGAPAGKKSRFGKKRNSNFSVQHPSSTSPTEKCQDGIMKKEGKDNVPEHFSGRAEDADSSSGPLASSSLLAKMRARNHLILPERLESESGHLQEASALLPTTEHDDLLVEMRNFIAFQAHTDGQASTREILQEFESKLSASQSCVFRELLRNLCTFHRTSGGEGIWKLKPEYC
notes: source: E. coli BL21(DE3) pLysS, purified (Ni-NTA, Superdex S75)
B3: N-Avi-Biotin-SNM1A (a.a. 698-1040), wild type (domain or fragment, human, UniProt Q6PJP8 698-1040, looked up)
chain: KKTCPFYKKIPGTGFTVDAFQYGVVEGCTAYFLTHFHSDHYAGLSKHFTFPVYCSEITGNLLKNKLHVQEQYIHPLPLDTECIVNGVKVVLLDANHCPGAVMILFYLPNGTVILHTGDFRADPSMERSLLADQKVHMLYLDTTYCSPEYTFPSQQEVIRFAINTAFEAVTLNPHALVVCGTYSIGKEKVFLAIADVLGSKVGMSQEKYKTLQCLNIPEINSLITTDMCSSLVHLLPMMQINFKGLQSHLKKCGGKYNQILAFRPTGWTHSNKFTRIADVIPQTKGNISIYGIPYSEHSSYLEMKRFVQWLKPQKIIPTVNVGTWKSRSTMEKYFREWKLEAGY
modifications: biotin on the N-terminal Avi tag
notes: SNM1A (DCLRE1A), human, core catalytic domain (MBL-beta-CASP), residues 698-1040; Immobilised in SPR through the biotinylated Avi tag; held on streptavidin mutein beads in the co-purifications; also called N-Avi-SNM1A_(698-1040); core catalytic domain of SNM1A; source: Sf9 insect cells (BirA co-expressed, D-biotin added), purified (streptavidin mutein matrix, Superdex S75); not shown: Avi …
B4: CSB lacking the N-terminal domain (DN-CSB, a.a. 402-1493) (domain or fragment, human, UniProt Q03468 402-1493, looked up)
chain: YELKPLPKGGKRQKKVPVQEIDDDFFPSSGEEAEAASVGEGGGGGRKVGRYRDDGDEDYYKQRLRRWNKLRLQDKEKRLKLEDDSEESDAEFDEGFKVPGFLFKKLFKYQQTGVRWLWELHCQQAGGILGDEMGLGKTIQIIAFLAGLSYSKIRTRGSNYRFEGLGPTVIVCPTTVMHQWVKEFHTWWPPFRVAILHETGSYTHKKEKLIRDVAHCHGILITSYSYIRLMQDDISRYDWHYVILDEGHKIRNPNAAVTLACKQFRTPHRIILSGSPMQNNLRELWSLFDFIFPGKLGTLPVFMEQFSVPITMGGYSNASPVQVKTAYKCACVLRDTINPYLLRRMKSDVKMSLSLPDKNEQVLFCRLTDEQHKVYQNFVDSKEVYRILNGEMQIFSGLIALRKICNHPDLFSGGPKNLKGLPDDELEEDQFGYWKRSGKMIVVESLLKIWHKQGQRVLLFSQSRQMLDILEVFLRAQKYTYLKMDGTTTIASRQPLITRYNEDTSIFVFLLTTRVGGLGVNLTGANRVVIYDPDWNPSTDTQARERAWRIGQKKQVTVYRLLTAGTIEEKIYHRQIFKQFLTNRVLKDPKQRRFFKSNDLYELFTLTSPDASQSTETSAIFAGTGSDVQTPKCHLKRRIQPAFGADHDVPKRKKFPASNISVNDATSSEEKSEAKGAEVNAVTSNRSDPLKDDPHMSSNVTSNDRLGEETNAVSGPEELSVISGNGECSNSSGTGKTSMPSGDESIDEKLGLSYKRERPSQAQTEAFWENKQMENNFYKHKSKTKHHSVAEEETLEKHLRPKQKPKNSKHCRDAKFEGTRIPHLVKKRRYQKQDSENKSEAKEQSNDDYVLEKLFKKSVGVHSVMKHDAIMDGASPDYVLVEAEANRVAQDALKALRLSRQRCLGAVSGVPTWTGHRGISGAPAGKKSRFGKKRNSNFSVQHPSSTSPTEKCQDGIMKKEGKDNVPEHFSGRAEDADSSSGPLASSSLLAKMRARNHLILPERLESESGHLQEASALLPTTEHDDLLVEMRNFIAFQAHTDGQASTREILQEFESKLSASQSCVFRELLRNLCTFHRTSGGEGIWKLKPEYC
notes: Cloned by InFusion from the full-length CSB pFastBac vector
B5: SNM1A (a.a. 698-1040), tag of the preparation not stated (domain or fragment, human, UniProt Q6PJP8 698-1040, looked up)
chain: B3 chain
notes: SNM1A (DCLRE1A), human, core catalytic domain, residues 698-1040; Used for HDX-MS, mass photometry and nuclease assays; Mass photometry legend gives an expected mass of 36 kDa; also called C-terminal SNM1A; source: purified from insect cells
B6: CSB winged-helix domain (WHD, a.a. 1424-1493) (domain or fragment, human, UniProt Q03468 1424-1493, looked up)
chain: HDDLLVEMRNFIAFQAHTDGQASTREILQEFESKLSASQSCVFRELLRNLCTFHRTSGGEGIWKLKPEYC
notes: also called CSB-WHD; source: E. coli BL21(DE3) pLysS, purified (Ni-NTA, Superdex S75)
B7: HaloTag-JF-552-labelled SNM1A (a.a. 698-1040), partially purified (domain or fragment, human, UniProt Q6PJP8 698-1040, looked up)
chain: B3 chain
modifications: JF-552 dye on the HaloTag
notes: SNM1A (DCLRE1A), human, catalytic C-terminal domain, residues 698-1040; Addgene vector (printed as Addgene: 58241) giving an N-terminal His-Halo tag; also called SNM1A (JF-552, green); SNM1A_(698-1040) for single-molecule studies; source: Expi293F, transfected, partially purified (Ni-NTA); not shown: HaloTag, N-terminal, kept
B8: E864A-SNM1A (MBL-beta-CASP domain, a.a. 698-1040), N-Avi (domain or fragment, human, UniProt Q6PJP8 698-1040, looked up)
chain: B3 chain with E167A
modifications: biotin on the N-terminal Avi tag
notes: SNM1A (DCLRE1A), human, core catalytic domain, residues 698-1040, E864A; also called SNM1A-E864A; SNM1A (E864A); source: Sf9 insect cells (D-biotin added), purified (streptavidin mutein matrix, gel filtration)

Columns and labels:
[1] = target: B3; test: SPR; single-cycle; SNM1A immobilised via biotinylated N-terminal Avi tag on a Series S SA surface (~4000 RU); CSB constructs as analytes, 5 or 6 two-fold dilutions from 500 nM or 1 uM; 20 mM HEPES pH 7.5, 150 mM NaCl, 0.5 mM TCEP; 1:1 Langmuir fit; apparent KD; conditions: both partners purified
[2] = target: B8; test: as above; conditions: both partners purified
[3] = target: B3; test: pull-down + SEC; co-purification: CSB construct (eluted from Ni-NTA, desalted) incubated with N-Avi-Biotin-SNM1A on streptavidin mutein beads, washed (500 mM NaCl, 1 mM Mg2+), eluted with 5 mM D-biotin, run on Superdex S200 GL 10/300; SDS-PAGE, MS and calibration curve; conditions: both partners purified
[4] = target: B3; test: SPR; multi-cycle; SNM1A immobilised via biotinylated N-terminal Avi tag (~4000 RU); two-fold dilutions from 2 uM, 300 s injection, 1200 s dissociation; regeneration with 1 M NaCl; apparent KD; conditions: both partners purified
[5] = target: T1, full-length CSB (ERCC6), wild type, recombinant (human, UniProt Q03468 1-1493); test: SPR; single-cycle; SNM1A immobilised via biotinylated N-terminal Avi tag on a Series S SA surface (~4000 RU); CSB constructs as analytes, 5 or 6 two-fold dilutions from 500 nM or 1 uM; 20 mM HEPES pH 7.5, 150 mM NaCl, 0.5 mM TCEP; 1:1 Langmuir fit; apparent KD; conditions: both partners purified
T1 construct: CSB (ERCC6), human, full length, a.a; A TEV site follows the N-terminal tags, but no cleavage is described; also called FL-CSB; WT-CSB; source: Sf9 insect cells, purified (Ni-NTA, Superdex S200, HiTrap SP)

[6] = target: the molecule itself; test: SEC-MALS; DN-CSB alone, 5 uM; monomer to dimer
[7] = target: T1, full-length CSB (ERCC6), wild type, …; test: mass photometry; CSB and SNM1A mixed at 200 nM each, 5 min at room temperature, diluted 10-fold into the gasket; 50 mM HEPES pH 7.5, 300 mM NaCl, 0.5 mM TCEP; KD from mass counts; conditions: both partners purified
[8] = target: T2, HaloTag-CSB, full length, JaneliaFluor-labelled (human, UniProt Q03468 1-1493, JaneliaFluor dye (JF552 or JF635) on the HaloTag); test: single-molecule fluorescence on tethered DNA (SMADNE, LUMICKS C-Trap); partially purified HaloTag-JF-552 SNM1A added to HaloTag-CSB (JF635) nuclear extract, on lambda dsDNA; category 9 colocalisation events; apparent constants; DNA present; conditions: one partner purified
T2 construct: CSB (ERCC6), human, full length, codon-optimised for mammalian expression; Vectors with N-terminal HaloTag under a CMV promoter (Promega pFN28A or Addgene 58241, both used on separate days); also called CSB (JF-635, red); CSB (JF552, green); source: Expi293F, transfected, in nuclear extract; not shown: HaloTag, N-terminal, kept

[9] = target: T2, HaloTag-CSB, full length, …; test: single-molecule fluorescence on tethered DNA (SMADNE, LUMICKS C-Trap); partially purified HaloTag-JF-552 SNM1A added to HaloTag-CSB (JF635) nuclear extract, on a site-specific ICL flap repair intermediate in 12 kb DNA; apparent constants; DNA present; conditions: one partner purified

B1
Kd [1]: 10.7 nM and 12 nM
Kd [2]: 29 nM
stoichiometry N [3]: 2

B2
binding result [4]: binds

B3
Kd [5]: 4.8 nM and 4 nM

B4
stoichiometry N [6]: 2

B5
Kd [7]: 499 nM

B6
Kd [1]: 89 nM
Kd [2]: ~1000 nM
stoichiometry N [3]: 1

B7
apparent KD of SNM1A for CSB-bound lambda dsDNA [8]: 17.5 nM
apparent KD of SNM1A for the CSB-bound ICL repair intermediate [9]: 45 nM

B8
Kd [5]: 8 nM
